Laboratory results taken from the nanobody polyreactivity screen of Harvey et al. (2022).

Experiment: yeast display, Sf9 membrane polyspecificity reagent, FACS + sequencing; frameworks hold sequencing errors
Outline: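 Polyreactivity labels are assigned by the sorting gate from which each nanobody was recovered. The gates were low and high (top ~1%), set on anti-HA fluorescence for expression and streptavidin fluorescence for reagent binding. Before sorting, galactose-induced (36–48 hours) yeast display cells were stained for 1 hour at 4 °C with 10% biotinylated, detergent-solubilized Sf9 membrane reagent.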
In the case of “QVQLVESGGGLVQAGGSLRLSCAASGIIFGGNVMGWYRQAPGKERELVAAISGTGDNTYYADSVKGRFTISRDNAKNTVYLQMNSLKPEDTAVYYCNTVYYGWPRRYGYWGQGTQVTVSS”, the “polyreactivity (PSR sort gate)” value is reported as “high polyreactivity”. In the case of “QVQLVESGGGLVQAGGSLRLSCAASGIIFGGYAMGWYRQAPGKERELVASITWGGGSTYYADSVKGRFTISRDNAKNTVYLQMNSLKPEDTAVYYCNKRGYPGYDWGQGTQVTVSS”, the “polyreactivity (PSR sort gate)” value is reported as “low polyreactivity”. For “QVQLVESGGGLVQAGGSLRLSCAASGIIFGHYALGWYRQAPGKERELVAAITASSGNTYYADSVKGRFTISRDNAKNTVYLQMNSLKPEDTAVYYCAAVSYSSYRYDSWGQGTQVTVSS”, the “polyreactivity (PSR sort gate)” value was “high polyreactivity”. In the case of “QVQLVESGGGLVQAGGSLRLSCAASGIIFGIYARGWYRQAPGKERELVAAIRYRGGNTNYADSVKGRFTISRDNAKNTVYLQMNSLKPEDTAVYYCAAKRFADPYYYWGQGTQVTVSS”, the “polyreactivity (PSR sort gate)” value is reported as “high polyreactivity”. For “QVQLVESGGGLVQAGGSLRLSCAASGIIFGKYDMGWYRQAPGKEREMVAAITSGTSTNYADSVKGRFTISRDNAKNTVYLQMNSLKPEDTAVYSCAADVYLYYPYFGHRRYNYWGQGTQVTVSS”, the “polyreactivity (PSR sort gate)” value was “high polyreactivity”. In the case of “QVQLVESGGGLVQAGGSLRLSCAASGIIFGRNARGWYRQAPGKEREMVAGITRRGARTYYADSVKGRFTISRDNAKNTVDLQMKSLKPEDTSVYYCATYSVQTDYGRGDYWGQGTKVTVSS”, the “polyreactivity (PSR sort gate)” value is reported as “high polyreactivity”. For “QVQLVESGGGLVQAGGSLRLSCAASGIIFGTNAMGWSRQAPGKERELVAAITWSGGTYYADSVKGRFTISRDNAKITVYLQMNSQKPEDTAVYYCNAEWRVYPDLYDYWGQGTQVTVSS”, the “polyreactivity (PSR sort gate)” value was “low polyreactivity”. With “QVQLVESGGGLVQAGGSLRLSCAASGIIFGTNAMGWSRQAPGKERELVAGITSSGDSTYYADSVKGRFTISRDNAKNTVYLQMNSLKPEDTAVYYCARDIRTREFDSWGQGTQVTVSS” the “polyreactivity (PSR sort gate)” value was “low polyreactivity”. For “QVQLVESGGGLVQAGGSLRLSCAASGIIFGTNAMGWYRQAPGKERELVAYITSGGSTYADSVKGRFKISRDNAKNTVYLQMNSLKPEDTAVYSCAAYVFWAFYEYDYWGQGTQVTVSS”, the “polyreactivity (PSR sort gate)” value was “low polyreactivity”. In the case of “QVQLVESGGGLVQAGGSLRLSCAASGIIFGTYAMGWYRQAPGKERELVAVITSGAGRTYYADSVKGRFTISRDNAKNTVYLQMNSLKPEDTAVDYCAARVWYPRYDYWGQGTQVTVSS”, the “polyreactivity (PSR sort gate)” value is reported as “high polyreactivity”. In the case of “QVQLVESGGGLVQAGGSLRLSCAASGIIFGVYAMGWYREAPGKERELVAAISRSGDSTYYADSVKGRFTISRDNAKNTVYLQMNSLKPEDTAVYYCAAEWYFTFDYWGQGTQVTVSS”, the “polyreactivity (PSR sort gate)” value is reported as “low polyreactivity”. In the case of “QVQLVESGGGLVQAGGSLRLSCAASGIIFGVYAMGWYRQAPGKERELVAAISRSGDSTYYADSVKGRFTISRDNAKNTVYLQMNSLKPEDTAVYYCAAEWYITFDYWGQGTQVTVSS”, the “polyreactivity (PSR sort gate)” value is reported as “low polyreactivity”. For “QVQLVESGGGLVQAGGSLRLSCAASGIIFGWYAMGWYRKAPGKERELVAAISSGGRTNYADSVKGRFTISRDNAKNTVYLQMNSLKPEDTAVYYCAAAYIRGSRRYDYWGQGTQVTVSS”, the “polyreactivity (PSR sort gate)” value was “high polyreactivity”. With “QVQLVESGGGLVQAGGSLRLSCAASGIIFGYYAMGWYRQAPGKERELVAAISWSGVSTYYADSVKGRFTISRDNAKNTVYLQMHSLKPEDTAVYYCAVGYVLTGVFQARFDYWGQGTQVTVSS” the “polyreactivity (PSR sort gate)” value was “high polyreactivity”. For “QVQLVESGGGLVQAGGSLRLSCAASGIIFHFNAMGWYRQAPGKERELVAAITSGANTNYADSVKGRFTISRDNAKNTVYLQMNSLKPEDTSVYYCATRPHTDVRFVRTRRYDYWGQGTQVTVSS”, the “polyreactivity (PSR sort gate)” value was “low polyreactivity”. In the case of “QVQLVESGGGLVQAGGSLRLSCAASGIIFHFNEMGWYRQAPGKERELVAAITSGGSTNYADSVKGRFTISRDNAKNTVYLQMNSLKPEDTAVYYCAARRGLRLFAYRHGYWGQGTQVTVSS”, the “polyreactivity (PSR sort gate)” value is reported as “low polyreactivity”. For “QVQLVESGGGLVQAGGSLRLSCAASGIIFHKYAMGWYRQAPGKERELVAVITWRGGSTYYADSVKGRFTISRDHAKNTVYLQMNSLKPEDTAVYYCAARSQYRDRTGQYGYWGQGTQVTVSS”, the “polyreactivity (PSR sort gate)” value was “high polyreactivity”. For “QVQLVESGGGLVQAGGSLRLSCAASGIIFIGNAMGWYRQAPGKERELVAAIRSGTGTNYADSVKGRFTISRDNAKNTVYLQMNSLKPEDTAVYYSNADYNSGTYTQGTHEGDYWGQGTQVTVSS”, the “polyreactivity (PSR sort gate)” value was “low polyreactivity”. With “QVQLVESGGGLVQAGGSLRLSCAASGIIFISNAMGWSRQAPGTERELVADITSGGGSTYYADSVKGRFTISRDNAKNTVDLQMNSLKPDDTAVYYGAKRATGAYVFFFDSWGQGTQVTVSS” the “polyreactivity (PSR sort gate)” value was “low polyreactivity”. For “QVQLVESGGGLVQAGGSLRLSCAASGIIFKEYALGGYRQAPGKERELVARITGSTGSTYADSVNGRFTISRDNAKNTVYLQMNSLKPEDTAVYYCAKYIGRGERLSDTRYGLDYWGQGTQVSVSS”, the “polyreactivity (PSR sort gate)” value was “low polyreactivity”. With “QVQLVESGGGLVQAGGSLRLSCAASGIIFKEYAMGGYRPAPGKERELVAAISGRGGSTYYADSVKGRFSISRDNAKNTVYLQMSSLKPEDTAVYYCNAVASWQRYDYWGQGTQVTVSS” the “polyreactivity (PSR sort gate)” value was “high polyreactivity”. In the case of “QVQLVESGGGLVQAGGSLRLSCAASGIIFKIYAMGWYRQAPGKERELVAAISKRGASTYYADSVKGRFTISRDNAKNTVYLQMNSLKPEDTAVYYCAAYRQGSAYDYWGQGTQVTVSS”, the “polyreactivity (PSR sort gate)” value is reported as “high polyreactivity”. In the case of “QVQLVESGGGLVQAGGSLRLSCAASGIIFKIYAMGWYRQAPGKERELVAAISWRGGSTYYADSVKGRFTISRDNAKNTVYLQMNSLKPEDTAVYYCAAARGYRTGYGYWGQGTQVTVSS”, the “polyreactivity (PSR sort gate)” value is reported as “high polyreactivity”. For “QVQLVESGGGLVQAGGSLRLSCAASGIIFKYYAMGWYRPAPGKERELVAAITASGGRTYYADSVKGRFTISRDNAKNTVYLQMNSLKPEDTAVYYCAADSRSAYDYWGQGTQVTVSS”, the “polyreactivity (PSR sort gate)” value was “high polyreactivity”. With “QVQLVESGGGLVQAGGSLRLSCAASGIIFKYYAMGWYRQAPGKERELVAAITRSGGSTYYADSVKGRFTISRDNAKNTVYLQMYSLKPEDTAVYYCAAQTGYSYGITWQFTKYNYWGQGTQVTVSS” the “polyreactivity (PSR sort gate)” value was “low polyreactivity”. With “QVQLVESGGGLVQAGGSLRLSCAASGIIFLDNVMRWYRQAPGKERELVAAISSSGGSTYYADSVKGRFTISRDNAKNTVYLQMNSLKPEDTAVYYCAAYFRRGFYYWGQGTQVTVSS” the “polyreactivity (PSR sort gate)” value was “high polyreactivity”. In the case of “QVQLVESGGGLVQAGGSLRLSCAASGIIFLENAMGWYRQAPGKEREFVAAISRSGGITYYADSVKGRFTISRDNAKNTVYLQMNSLKPEDTAVYYCAAVGRDRYRHSPQPLYDYWGQGTQVTVSS”, the “polyreactivity (PSR sort gate)” value is reported as “low polyreactivity”. In the case of “QVQLVESGGGLVQAGGSLRLSCAASGIIFLEYAMGWYRQAPGKERELVAAISSDDGSSTYYADSVKGRFTISRDNAKNTVYLKMNSLKPEDTAVYYCAAYGGGGYYYDYEYWGQGTQVTVSS”, the “polyreactivity (PSR sort gate)” value is reported as “high polyreactivity”. With “QVQLVESGGGLVQAGGSLRLSCAASGIIFLGYARGWYRQAPGKERELVADIYSGVRTYYADSVKGRFTISRDNAKNTVYLQMNSLKPEDTAVYYCNATWTPYSSKQYYYWGQGTQVTVSS” the “polyreactivity (PSR sort gate)” value was “low polyreactivity”. For “QVQLVESGGGLVQAGGSLRLSCAASGIIFLKYAMGWYRQAPGKERELVAAISRSGGGTYYADSVKGRFTISRDNAKNTVYLQMNSLKLEDTAVYYCAARGVDRQGYRFYYWGQGTQVTVSS”, the “polyreactivity (PSR sort gate)” value was “high polyreactivity”. With “QVQLVESGGGLVQAGGSLRLSCAASGIIFLNYVMGWYRQAPGKERELVAAITTSGASTYYADSVKGRFTISRDNAKNTVYLQMNSLKPEDTAVYYCAAVFRHARYRYDYWGLGTQVTVSS” the “polyreactivity (PSR sort gate)” value was “high polyreactivity”. With “QVQLVESGGGLVQAGGSLRLSCAASGIIFLSYAMGWYRQAPGKERELVAAIRSRGDSTYYADSVKGRFTISRDNAKNTVYLQMNSLKPEDTAVYYCNARQRRYPYGYWGQGTQVTVSS” the “polyreactivity (PSR sort gate)” value was “high polyreactivity”. With “QVQLVESGGGLVQAGGSLRLSCAASGIIFLYYAMGWYRQAPGKERELVAAISKSGGSTYYADSVKGRFTISRDNAKNTVYLQMNSLKPEDTAVYYCAARLWHLSYAGQGGDYWGQGTQVTVSS” the “polyreactivity (PSR sort gate)” value was “low polyreactivity”. In the case of “QVQLVESGGGLVQAGGSLRLSCAASGIIFNANTMLWYRQAPGKERELVAAITRGGSTNYADSEKGRFTISRDNAKNTVYLQMNSLKPEDTAVYYCAARTGYYCGSGGNRYISPYDYWGQGTQVTVSS”, the “polyreactivity (PSR sort gate)” value is reported as “low polyreactivity”. In the case of “QVQLVESGGGLVQAGGSLRLSCAASGIIFNSNAMGWYRQAPGKERELVAAISVSGGSTYYADSVKGRFTISRDNAKNTVYLQMNSLKPEDTAVYYCAAVFYYWSLRSYYWGQGTQVTVSS”, the “polyreactivity (PSR sort gate)” value is reported as “high polyreactivity”. With “QVQLVESGGGLVQAGGSLRLSCAASGIIFPPYAMGWYRQAPWKEREFVAGITSSGGTYYADSVKGRFTISRDNAKNTVYLQMNSLKPEDTAVYYCAARQGNLRRGVRWFNYWGQGTQVTVSS” the “polyreactivity (PSR sort gate)” value was “high polyreactivity”. In the case of “QVQLVESGGGLVQAGGSLRLSCAASGIIFPPYTMGWYRQAPGKERELVAGITGNSGTTYYADSVKGRFTISRDNAKNTVYLQMNSLKPEDTAVYYCAVRDVYHRYWGQGTQVTVSS”, the “polyreactivity (PSR sort gate)” value is reported as “high polyreactivity”. For “QVQLVESGGGLVQAGGSLRLSCAASGIIFPRNAMGWSREAPGKERELVAAITSGDTTNYADSVKGRFTISRDNAKKTVYLQMNSQKPADTAVYYCAADQFQGNSGFEYWGQGTQVTVSS”, the “polyreactivity (PSR sort gate)” value was “low polyreactivity”. For “QVQLVESGGGLVQAGGSLRLSCAASGIIFPWYTMGWYRQAPGKERELVAAISSGGRTNYADSVKGRFTISRDNAKNTVYLQMNSLKPEDTAVYYCAAKFYRDRDWGQGTQVTVSS”, the “polyreactivity (PSR sort gate)” value was “high polyreactivity”. For “QVQLVESGGGLVQAGGSLRLSCAASGIIFPYNTMGWYRQAPGKERELVASIDDGGSTNYADSVKGRFTISRDNAKNTVYLQMNSLKPEDTAVYYCAADPYWFFPHYDSWGQGTQVTVSS”, the “polyreactivity (PSR sort gate)” value was “low polyreactivity”. For “QVQLVESGGGLVQAGGSLRLSCAASGIIFPYYAMGWYIQAPGKERELVASISSRGSSTYYADSVKGRFTISRDNAKNTVFLQMNSLKPEDTAVYYSAAQNFYRYYWGQGTQVTVSS”, the “polyreactivity (PSR sort gate)” value was “high polyreactivity”.
